{
  "source": "paper PMC11927663",
  "about": "(Science Advances, 2025)",
  "molecular_target": "β-subunit of nerve growth factor (UniProt P01138 122-241)",
  "sequence (P01138 122-241)": "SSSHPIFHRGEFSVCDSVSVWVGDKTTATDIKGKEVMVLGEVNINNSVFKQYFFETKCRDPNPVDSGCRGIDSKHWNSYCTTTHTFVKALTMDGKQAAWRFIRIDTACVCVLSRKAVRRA",
  "assay": "ELISA",
  "note": "Where no end group is shown, it is not given here.",
  "data": [
    {"binder": "NERALTLGEEGAVVK (also: displayed on M13 phage)", "note": "[NK-displaying M13 phage (β-NGF-binding peptide NK displayed on M13 phage)]", "values": [
      {"measurement": "fold increase in ELISA absorbance", "result": 4, "unit": "fold"}
    ]}
  ]
}
